These results are taken from paper PMC9597577, “Mutant Ras and inflammation-driven skin tumorigenesis is suppressed via a JNK-iASPP-AP1 axis” (Cell Reports, 2022).

In one test the target is T1, iASPP CTD (625–828) (UniProt Q8WUF5 625-828).
T1 chain: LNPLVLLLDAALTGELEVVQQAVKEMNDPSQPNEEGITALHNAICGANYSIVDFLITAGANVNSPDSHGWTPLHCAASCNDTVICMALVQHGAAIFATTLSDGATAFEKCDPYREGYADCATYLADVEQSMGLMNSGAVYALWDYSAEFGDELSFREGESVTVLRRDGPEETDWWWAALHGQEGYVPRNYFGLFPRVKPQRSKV
Kind of test: ITC. A general note: ITC needs no label: the signal is the heat of the interaction.

The target of test [1] is T2, ASPP1 CTD (887–1090) (Homo sapiens (Human), UniProt Q96KQ4).
T2 chain: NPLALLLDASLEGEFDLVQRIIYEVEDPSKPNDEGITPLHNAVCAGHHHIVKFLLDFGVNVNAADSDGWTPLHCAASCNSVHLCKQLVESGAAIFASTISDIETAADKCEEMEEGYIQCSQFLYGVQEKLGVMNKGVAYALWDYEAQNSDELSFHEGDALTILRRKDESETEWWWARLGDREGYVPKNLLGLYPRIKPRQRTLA
Kind of test: ITC.

In test [2] the target is T3, ASPP1 CTD (887–1090) (Homo sapiens (Human), UniProt Q96KQ4).
T3 chain: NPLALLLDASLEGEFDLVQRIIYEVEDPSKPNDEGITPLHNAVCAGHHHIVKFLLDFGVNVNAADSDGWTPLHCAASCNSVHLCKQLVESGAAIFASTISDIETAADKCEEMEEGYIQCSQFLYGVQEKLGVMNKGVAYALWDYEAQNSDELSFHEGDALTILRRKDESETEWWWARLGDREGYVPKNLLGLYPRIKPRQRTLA
Kind of test: ITC.

The target of test [3] is T4, Halo-tagged iASPP CTD (625–828) (UniProt Q8WUF5 625-828).
T4 construct: iASPP C-terminal domain (CTD) with the SH3 domain, residues 625-828; also called iASPP CTD fused to Halo-Tag; not shown: HaloTag, N-terminal, kept
T4 sequence (looked up): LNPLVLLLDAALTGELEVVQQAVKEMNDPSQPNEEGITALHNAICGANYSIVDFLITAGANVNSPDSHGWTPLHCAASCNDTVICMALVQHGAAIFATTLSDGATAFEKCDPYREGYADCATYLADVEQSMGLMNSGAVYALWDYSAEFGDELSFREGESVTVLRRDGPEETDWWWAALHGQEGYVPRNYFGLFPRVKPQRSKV
Kind of test: pull-down; displacement pull-down: 25 μM JunD or PP1 peptide added to Halo-iASPP CTD on magnetic Halo beads, read by loss of in vitro translated Myc-tagged protein. The note with it: both partners purified.

What is called Kd is the constant that tells how readily two partners part at equilibrium. Low values mean tighter binding, high ones weaker binding.

As for WLKPAAAPPPTPLRADGAPSA [JunD peptide (WLKPAAAPPPTPLRADGAPSA)], in the test with iASPP CTD (625–828), the dissociation constant Kd came to 4.58 µM. Besides, the binding result with ASPP1 CTD (887–1090) [1] and with ASPP1 CTD (887–1090) [2] was “no binding” throughout.

B1: PP1alpha peptide (WNPGGRPITPPRNSA) (peptide)
peptide: WNPGGRPITPPRNSA
notes: leading tryptophan; PxxP-containing peptide derived from the phosphatase PP1 (PP1alpha), C-terminal tail; also called PP1 peptide; source: synthetic peptide (TUCF, custom made)
For B1, the binding result in test [3] is listed as “binds”.
